Reference: paper PMC10160951 (Proceedings of the National Academy of Sciences of the …, 2023)
Blank lines part the entries; values can stand above or below the molecule they belong to.

What was measured:
[1] = molecular target: full-length SNAP-tagged NKG2D on HEK293 TRex cells (co-expressed with DAP10) (human) (UniProt P26718); assay: FRET or BRET
[2] = molecular target: T1, Alexa Fluor 647-labeled MICB ECD (24 to 297) (human, UniProt Q29980 24-297, AF647 label on Cys213); assay: FRET or BRET
T1 sequence: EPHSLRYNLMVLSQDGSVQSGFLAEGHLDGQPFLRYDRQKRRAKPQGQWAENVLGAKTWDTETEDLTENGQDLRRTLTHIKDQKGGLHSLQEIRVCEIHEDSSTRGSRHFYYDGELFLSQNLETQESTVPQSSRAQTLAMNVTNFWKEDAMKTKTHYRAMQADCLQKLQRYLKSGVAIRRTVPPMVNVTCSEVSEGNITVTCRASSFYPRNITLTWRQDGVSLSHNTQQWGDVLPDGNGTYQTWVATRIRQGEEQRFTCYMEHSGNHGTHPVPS

[3] = molecular target: T2, MICA ECD (24 to 297), not dye-labeled (human, UniProt Q29983 24-297); assay: SPR
T2 sequence: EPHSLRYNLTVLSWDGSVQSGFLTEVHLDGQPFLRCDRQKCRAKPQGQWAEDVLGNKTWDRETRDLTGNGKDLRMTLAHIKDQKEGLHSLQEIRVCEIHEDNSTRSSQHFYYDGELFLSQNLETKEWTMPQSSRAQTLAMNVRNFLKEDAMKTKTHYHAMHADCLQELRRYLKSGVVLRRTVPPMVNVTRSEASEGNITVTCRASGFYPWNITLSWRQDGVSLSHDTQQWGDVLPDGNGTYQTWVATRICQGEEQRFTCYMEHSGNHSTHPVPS

[4] = molecular target: T2, MICA ECD (24 to 297), not dye-labeled; assay: SEC-MALS

Kd [1]: 2.5 nM
Molecule: Alexa Fluor 647-labeled ULBP6 ECD (29 to 207) (from UniProt Q5VY80 29-207) (ligand)

Kd [2]: 700 nM
B1: full-length SNAP-tagged NKG2D on HEK293 TRex cells (co-expressed with DAP10) (receptor)
chain: MGWIRGRRSRHSWEMSEFHNYNLDLKKSDFSTRWQKQRCPVVKSKCRENASPFFFCCFIAVAMGIRFIIMVTIWSAVFLNSLFNQEVQIPLTESYCGPCPKNWICYKNNCYQFFDESKNWYESQASCMSQNASLLKVYSKEDQDLLKLVKSYHWMGLVHIPTNGSWQWEDGSILSPNLLTIIEMQKGDCALYASSFKGYIENCSTPNTYICMQRTV
modifications: terbium label on the SNAP-tag

Kd [3]: 48 nM
B2: biotinylated and detagged NKG2D ECD (90 to 216) (domain or fragment)
chain: PLTESYCGPCPKNWICYKNNCYQFFDESKNWYESQASCMSQNASLLKVYSKEDQDLLKLVKSYHWMGLVHIPTNGSWQWEDGSILSPNLLTIIEMQKGDCALYASSFKGYIENCSTPNTYICMQRTV
modifications: biotin on the Avi tag

binding result [4]: binds
B3: hNKG2D 90-216, S117E, I173S mutant (domain or fragment)
chain: MGPLTESYCGPCPKNWICYKNNCYQFFDEEKNWYESQASCMSQNASLLKVYSKEDQDLLKLVKSYHWMGLVHIPTNGSWQWEDGSSLSPNLLTIIEMQKGDCALYASSFKGYIENCSTPNTYICMQRTV
